Patent US20120065133A1 (University of Pennsylvania, published 2012)
Ends that are not written are not given here.

Biological target: the molecule itself
Assay: analytical ultracentrifugation; self-association of the peptide

B1: Construct 12 (AP6) (peptide)
peptide: CGGGEIWKQHEEALKKLFAFHFILPFIIMAIAMVHLLFLFGEGL
modifications: also: acetylated (position not given here)
notes: Designed amphiphilic helical peptide made by solid-phase synthesis; Heme cofactors may have been present; also called amphiphilic construct AP6
**Q.** Does B1 bind?
**A.** Result: binds
